Laboratory results as given in article PMC7948409.

Experiments:
[1] = target: F-actin (actin filaments) from rabbit leg and back muscle (rabbit) (UniProt P68135); test: single-molecule TIRF microscopy; in vitro motility assay under TIRF; HMM (342.8 nM incubation) on TMCS glass; Alexa-488 phalloidin F-actin propelled with 1 mM MgATP; 5 nM Alexa-647 gelsolin; pCa 8.2; 23 °C
[2] = target: F-actin (actin filaments) from rabbit leg and back muscle (rabbit) (UniProt P68135); test: single-molecule TIRF microscopy; HMM (34.2 nM incubation) adsorbed on TMCS glass; rhodamine phalloidin F-actin (5 nM) held stationary in rigor, no MgATP; 5 nM Alexa-647 gelsolin in solution; no added Ca2+ (pCa > 9); 23 °C; 9 min observation
[3] = target: F-actin (actin filaments) from rabbit leg and back muscle (UniProt P68135); test: single-molecule TIRF microscopy; in vitro motility assay under TIRF; HMM (342.8 nM incubation) on TMCS glass; Alexa-488 phalloidin F-actin propelled with 1 mM MgATP; 5 nM Alexa-647 gelsolin; pCa 8.2; 23 °C; conditions: other: single-molecule TIRF microscopy

Row | gelsolin molecules bound per filament [1] [per filament] | percent of HMM-propelled actin filaments with bound labeled gelsolin [1] [%] | gelsolin attachments per filament during 9 min [2] [per filament] | Substance | percent of sliding filaments with bound gelsolin, corrected for the labeling efficiency [3]
1 | 1 | 36.5 | 1.7 | Alexa-647-labeled gelsolin (His-tagged recombinant full-length human cytoplasmic gelsolin) (natural protein) | 
2 |  |  |  | Alexa-647-labeled gelsolin (His-tagged recombinant full-length human cytoplasmic gelsolin) | approximately 55% of all sliding filaments have bound gelsolin
